# According to the supplement of paper PMC10567573:
# B1: GNAI1 (parent)
# chain: WIHCFEGVTAIIFCVALSDYDLVL
# B2: EPB41L3 (parent)
# chain: SMQCKVILLDGSEYTCDVEKRSRG
# Variants of: B1
# Assay: protein stability index of a GFP-peptide fusion (GPS, HEK-293T) (PSI 1-6); higher = more stable
# Conditions: c terminus: a fixed tail appended
# 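Further: lentivirally expressed fusions sorted by FACS into six bins by GFP to DsRed ratio, PSI derived from sequencing read proportions per bin multiplied by bin number.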
row,Variant,protein stability index
1,WIHCFVGVTAIIFCVALSDYDLVL,2.97
2,WIHCFRGVTAIIFCVALSDYDLVL,3.24
3,WIHCFMGVTAIIFCVALSDYDLVL,2.6
4,WIHCFEGITAIIFCVALSDYDLVL,3.14
5,WIHCFEGDTAIIFCVALSDYDLVL,2.79
6,WIHCFEGRTAIIFCVALSDYDLVL,3.63
7,WIHCFEGPTAIIFCVALSDYDLVL,2.99
8,WIHCFEGGTAIIFCVALSDYDLVL,1.82
9,WIHCFEGNTAIIFCVALSDYDLVL,2.3
10,WIHCFEGSTAIIFCVALSDYDLVL,1.65
11,WIHCFEGYTAIIFCVALSDYDLVL,2.2
12,WIHCFEGKTAIIFCVALSDYDLVL,1.95
13,WIHCFEGATAIIFCVALSDYDLVL,2.56
14,WIHCFEGLTAIIFCVALSDYDLVL,2.78
15,WIHCFEGQTAIIFCVALSDYDLVL,3.32
16,WIHCFEGFTAIIFCVALSDYDLVL,3.11
17,WIHCFEGMTAIIFCVALSDYDLVL,2.09
18,WIHCFEGCTAIIFCVALSDYDLVL,3.33
19,WIHCFEPVTAIIFCVALSDYDLVL,5.18
20,WIHCFEMVTAIIFCVALSDYDLVL,1.99
21,WIHCFEIVTAIIFCVALSDYDLVL,4.42
22,WIHCFERVTAIIFCVALSDYDLVL,2.02

row,Variant,protein stability index
1,WIHCFEQVTAIIFCVALSDYDLVL,2.28
2,WIHCFECVTAIIFCVALSDYDLVL,4.35
3,WIHCFETVTAIIFCVALSDYDLVL,2.51
4,WIHCFELVTAIIFCVALSDYDLVL,2.54
5,WIHCFEEVTAIIFCVALSDYDLVL,3.19
6,WIHCFEHVTAIIFCVALSDYDLVL,2.92
7,WIHCFEYVTAIIFCVALSDYDLVL,2.62
8,WIHCFESVTAIIFCVALSDYDLVL,2.44
9,WIHCFEDVTAIIFCVALSDYDLVL,3.39
10,WIHCFEGVCAIIFCVALSDYDLVL,2.57
11,WIHCFEGVGAIIFCVALSDYDLVL,2.84
12,WIHCFEGVRAIIFCVALSDYDLVL,2.51
13,WIHCFEGVWAIIFCVALSDYDLVL,3.23
14,WIHCFEGVKAIIFCVALSDYDLVL,2.17
15,WIHCFEGVFAIIFCVALSDYDLVL,3.82
16,WIHCFEGVAAIIFCVALSDYDLVL,2.01
17,WIHCFEGVIAIIFCVALSDYDLVL,4.15
18,WIHCFEGVQAIIFCVALSDYDLVL,2.66
19,WIHCFEGVHAIIFCVALSDYDLVL,3.23
20,WIHCFEGVSAIIFCVALSDYDLVL,2
21,WIHCFEGVYAIIFCVALSDYDLVL,2.83
22,WIHCFEGVDAIIFCVALSDYDLVL,3.05

# Variants of: B2
# Assay: as above
# Conditions: c terminus: a fixed tail appended
row,Variant,protein stability index
1,SMQCKVILLDGSEYTCDVEKRSPG,2.51
2,SMQCKVILLDGSEYTCDVEKRSMG,2.72
3,SMQCKVILLDGSEYTCDVEKRSLG,2.8
4,SMQCKVILLDGSEYTCDVEKRSKG,3.39
5,SMQCKVILLDGSEYTCDVEKRSFG,2.07
6,SMQCKVILLDGSEYTCDVEKRSCG,3.04
7,SMQCKVILLDGSEYTCDVEKRSVG,2.88
8,SMQCKVILLDGSEYTCDVEKRSYG,2.22
9,SMQCKVILLDGSEYTCDVEKRSAG,3.05
10,SMQCKVILLDGSEYTCDVEKRSQG,2.87
11,SMQCKVILLDGSEYTCDVEKRSDG,3.51
12,SMQCKVILLDGSEYTCDVEKRSTG,3.61
13,SMQCKVILLDGSEYTCDVEKRSEG,2.63
14,SMQCKVILLDGSEYTCDVEKRSHG,3.31
15,SMQCKVILLDGSEYTCDVEKRSNG,2.52
16,SMQCKVILLDGSEYTCDVEKRSSG,3.17
17,SMQCKVILLDGSEYTCDVEKRSIG,2.45
18,SMQCKVILLDGSEYTCDVEKRSRE,3
19,SMQCKVILLDGSEYTCDVEKRSRK,2.99
20,SMQCKVILLDGSEYTCDVEKRSRN,3.27
21,SMQCKVILLDGSEYTCDVEKRSRT,3.25
22,SMQCKVILLDGSEYTCDVEKRSRP,2.47
23,SMQCKVILLDGSEYTCDVEKRSRD,2.37
24,SMQCKVILLDGSEYTCDVEKRSRI,1.98
25,SMQCKVILLDGSEYTCDVEKRSRA,3.43

row,Variant,protein stability index
1,SMQCKVILLDGSEYTCDVEKRSRV,2.83
2,SMQCKVILLDGSEYTCDVEKRSRH,2.47
3,SMQCKVILLDGSEYTCDVEKRSRF,2.47
4,SMQCKVILLDGSEYTCDVEKRSRQ,2.17
5,SMQCKVILLDGSEYTCDVEKRSRW,2.88
6,SMQCKVILLDGSEYTCDVEKRSRR,2.84
7,SMQCKVILLDGSEYTCDVEKRSRY,2.25
8,SMQCKVILLDGSEYTCDVEKRSRS,3.48
9,SMQCKVILLDGSEYTCDVEKRSRC,2.56
10,SMQCKVILLDGSEYTCDVEKRSRL,2.47
11,SMQCKVILLDGSEYTCDVEKRSRM,2.51
12,SMQCKVILLDGSEYTCDVEKRWRG,2.11
13,SMQCKVILLDGSEYTCDVEKRERG,3.75
14,SMQCKVILLDGSEYTCDVEKRIRG,2.16
15,SMQCKVILLDGSEYTCDVEKRFRG,2.38
16,SMQCKVILLDGSEYTCDVEKRRRG,3.11
17,SMQCKVILLDGSEYTCDVEKRLRG,2.08
18,SMQCKVILLDGSEYTCDVEKRMRG,2.4
19,SMQCKVILLDGSEYTCDVEKRPRG,2.56
20,SMQCKVILLDGSEYTCDVEKRGRG,3.02
21,SMQCKVILLDGSEYTCDVEKRYRG,2.38
22,SMQCKVILLDGSEYTCDVEKRHRG,2.89
23,SMQCKVILLDGSEYTCDVEKRVRG,2.12
24,SMQCKVILLDGSEYTCDVEKRTRG,3.63
25,SMQCKVILLDGSEYTCDVEKRNRG,3.47
